Laboratory results taken from patent US20210301025A1 (published 2021).
Residue numbers refer to the chain shown, from its start. Numbers in names are those of the source.

B1: P54AR4-83v2 R18C, NEM conjugate (designed binder, not shown: small tags and cut ends)
chain: LPAPKNLVVSEVTEDSACLSWDDPWAFYESFLIQYQESEKVGEAIVLTVPGSERSYDLTGLKPGTEYTVSIYGVHNVYKDTNMRGLPLSAIFTT
modifications: N-ethyl maleimide (NEM) on Cys 18
B2: P54AR4-83v2 V77C, NEM conjugate (designed binder, not shown: small tags and cut ends)
chain: B1 chain with C18R, V77C
modifications: N-ethyl maleimide (NEM) on Cys 77
B3: P54AR4-83v2 S52C, NEM conjugate (designed binder, not shown: small tags and cut ends)
chain: B1 chain with C18R, S52C
modifications: N-ethyl maleimide (NEM) on Cys 52
B4: P54AR4-83v2 V74C, NEM conjugate (designed binder, not shown: small tags and cut ends)
chain: B1 chain with C18R, V74C
modifications: N-ethyl maleimide (NEM) on Cys 74
B5: P54AR4-83v2 S38C, NEM conjugate (designed binder, not shown: small tags and cut ends)
chain: B1 chain with C18R, S38C
modifications: N-ethyl maleimide (NEM) on Cys 38
B6: P54AR4-83v2 R84C, NEM conjugate (designed binder, not shown: small tags and cut ends)
chain: B1 chain with C18R, R84C
modifications: N-ethyl maleimide (NEM) on Cys 84
B7: P54AR4-83v2 S89C, NEM conjugate (designed binder, not shown: small tags and cut ends)
chain: B1 chain with C18R, S89C
modifications: N-ethyl maleimide (NEM) on Cys 89
B8: P54AR4-83v2 Y78C, NEM conjugate (designed binder, not shown: small tags and cut ends)
chain: B1 chain with C18R, Y78C
modifications: N-ethyl maleimide (NEM) on Cys 78
B9: P54AR4-83v2 S55C, NEM conjugate (designed binder, not shown: small tags and cut ends)
chain: B1 chain with C18R, S55C
modifications: N-ethyl maleimide (NEM) on Cys 55
B10: P54AR4-83v2 V46C, NEM conjugate (designed binder, not shown: small tags and cut ends)
chain: B1 chain with C18R, V46C
modifications: N-ethyl maleimide (NEM) on Cys 46
B11: P54AR4-83v2 T13C, NEM conjugate (designed binder, not shown: small tags and cut ends)
chain: B1 chain with T13C, C18R
modifications: N-ethyl maleimide (NEM) on Cys 13
B12: P54AR4-83v2 T59C, NEM conjugate (designed binder, not shown: small tags and cut ends)
chain: B1 chain with C18R, T59C
modifications: N-ethyl maleimide (NEM) on Cys 59
B13: P54AR4-83v2 T93C, NEM conjugate (designed binder, not shown: small tags and cut ends)
chain: B1 chain with C18R, T93C
modifications: N-ethyl maleimide (NEM) on Cys 93
B14: P54AR4-83v2 T48C, NEM conjugate (designed binder, not shown: small tags and cut ends)
chain: B1 chain with C18R, T48C
modifications: N-ethyl maleimide (NEM) on Cys 48
B15: P54AR4-83v2 S10C, NEM conjugate (designed binder, not shown: small tags and cut ends)
chain: B1 chain with S10C, C18R
modifications: N-ethyl maleimide (NEM) on Cys 10
B16: P54AR4-83v2 V12C, NEM conjugate (designed binder, not shown: small tags and cut ends)
chain: B1 chain with V12C, C18R
modifications: N-ethyl maleimide (NEM) on Cys 12
B17: P54AR4-83v2 R54C, NEM conjugate (designed binder, not shown: small tags and cut ends)
chain: B1 chain with C18R, R54C
modifications: N-ethyl maleimide (NEM) on Cys 54
B18: P54AR4-83v2 S30C, NEM conjugate (designed binder, not shown: small tags and cut ends)
chain: B1 chain with C18R, S30C
modifications: N-ethyl maleimide (NEM) on Cys 30
notes: also called 530C
B19: P54AR4-83v2 V9C, NEM conjugate (designed binder, not shown: small tags and cut ends)
chain: B1 chain with V9C, C18R
modifications: N-ethyl maleimide (NEM) on Cys 9
B20: P54AR4-83v2 V8C, NEM conjugate (designed binder, not shown: small tags and cut ends)
chain: B1 chain with V8C, C18R
modifications: N-ethyl maleimide (NEM) on Cys 8
B21: P54AR4-83v2 V41C, NEM conjugate (designed binder, not shown: small tags and cut ends)
chain: B1 chain with C18R, V41C
modifications: N-ethyl maleimide (NEM) on Cys 41
B22: P54AR4-83v2 W25C, NEM conjugate (designed binder, not shown: small tags and cut ends)
chain: B1 chain with C18R, W25C
modifications: N-ethyl maleimide (NEM) on Cys 25
B23: P54AR4-83v2 S70C, NEM conjugate (designed binder, not shown: small tags and cut ends)
chain: B1 chain with C18R, S70C
modifications: N-ethyl maleimide (NEM) on Cys 70
notes: also called 570C
B24: P54AR4-83v2 T68C, NEM conjugate (designed binder, not shown: small tags and cut ends)
chain: B1 chain with C18R, T68C
modifications: N-ethyl maleimide (NEM) on Cys 68
notes: not used
B25: P54AR4-83v2 Y72C, NEM conjugate (designed binder, not shown: small tags and cut ends)
chain: B1 chain with C18R, Y72C
modifications: N-ethyl maleimide (NEM) on Cys 72
B26: P54AR4-83v2 S16C, NEM conjugate (designed binder, not shown: small tags and cut ends)
chain: B1 chain with S16C, C18R
modifications: N-ethyl maleimide (NEM) on Cys 16
B27: P54AR4-83v2 T81C, NEM conjugate (designed binder, not shown: small tags and cut ends)
chain: B1 chain with C18R, T81C
modifications: N-ethyl maleimide (NEM) on Cys 81
B28: P54AR4-83v2 S20C, NEM conjugate (designed binder, not shown: small tags and cut ends)
chain: B1 chain with C18R, S20C
modifications: N-ethyl maleimide (NEM) on Cys 20
notes: also called 520C
B29: P54AR4-83v2 V49C, NEM conjugate (designed binder, not shown: small tags and cut ends)
chain: B1 chain with C18R, V49C
modifications: N-ethyl maleimide (NEM) on Cys 49
B30: P54AR4-83v2 Y28C, NEM conjugate (designed binder, not shown: small tags and cut ends)
chain: B1 chain with C18R, Y28C
modifications: N-ethyl maleimide (NEM) on Cys 28

What was measured:
[1] = biological target: T1, EGFR (form used in the assay not stated) (human, UniProt P00533 25-645, limits assumed); experiment: ELISA, NEM conjugate, 10 nM
[2] = biological target: T1, EGFR (form used in the assay not stated); experiment: ELISA, NEM conjugate, 100 nM
[3] = biological target: T1, EGFR (form used in the assay not stated); experiment: ELISA, NEM conjugate, 500 nM

Binder	binding relative to P54AR4-83v2 parent [1] [ratio]	binding relative to P54AR4-83v2 parent [2] [ratio]	binding relative to P54AR4-83v2 parent [3] [ratio]
B1	0.86	1.05	0.94
B2	0.03	0	0.03
B3	0.78	1.03	0.93
B4	0.76	1.01	0.95
B5	0.8	0.93	0.82
B6	0.91	1.04	0.98
B7	0.97	1.02	1.04
B8	0.31	0.63	0.68
B9	0	0	0.11
B10	0.61	1.01	0.9
B11	0.87	1.04	0.9
B12	0.83	1.04	0.93
B13	0.96	1.05	1.04
B14	0.88	1	0.93
B15	0.83	1.07	0.96
B16	0.87	1.06	0.93
B17	0.89	1.01	0.93
B18	0.9	1.02	0.9
B19	0.94	1.03	0.93
B20	0.96	1.03	0.9
B21	0.92	0.99	0.95
B22	0.38	0.64	0.7
B23	0.86	1.01	0.93
B24	0.83	1.04	0.95
B25	0.93	1	0.93
B26	0.88	1.05	0.63
B27	0.5	0.9	1.02
B28	0.81	1.05	0.91
B29	0.96	1.01	0.98
B30	0	0.01	0.09
